Experimental data: patent publication US20260041732A1, “USE OF APELIN FOR THE TREATMENT OF LYMPHEDEMA” (INSTITUT NATIONAL DE LA SANTE ET DE LA RECHERCHE MEDICALE, priority 2022, published 2026)

What was measured:
[1] = cited from earlier work
[2] = system: Human dermal lymphatic endothelial cells (HDLEC); assay: RT-qPCR validation of gene induction; format: cell-based; conditions: RT-qPCR on HDLEC
Description: Total RNA was prepared using RNeasy kit (Qiagen 74106) according to the supplier's instruction. 1 μg of RNA was retro-transcribed using high-Capacity cDNA Reverse Transcription Kit (Thermo Fisher Scientific, 4368813) containing Multi-Scribe Reverse Transcriptase according to the supplier's instruction. Quantitative real-time PCR was performed using OneGreen FAST qPCR premix (Ozyme, OZYA008) on a StepOne Real-time PCR System (Thermofisher Scientific). All samples were analysed in duplicates. Data was normalized relative to HPRT mRNA levels.

E2F8 = assay: Chromatin immunoprecipitation (ChIP) with E2F8 antibody; format: cell-based, human; conditions: APELIN-overexpressing HDLEC
Description: Human dermal lymphatic endothelial cells (HDLEC) non transduced or transduced with Apelin Lentivector, were crosslinked for 15 min using 1% formaldehyde directly in the culture medium. 0.125 M of Glycine were then added for 5 min. After two washes with cold PBS, cells were scraped and frozen at −80° C. Cells were lysed to ChIP-IT Express Magnetic Chromatin
Immunoprecipitation kit (Active Motif 53008). Optimal sonication conditions were determined previously in order to obtain DNA fragments of about 500 bp. Cells were sonicated in 350 μl final volume of Shearing buffer specific to the kit, using Diagenode Bioruptor Sonicator (7 cycles, 30 sec ON, 30 sec OFF in a water bath). DNA concentration was determined using a Nanodrop and 25 μg of chromatin were used by reaction. Experiments were then performed according to the manufacturer protocol. 4 μg of E2F8 antibody (Abcam, AB 109596) were used by ChIP reaction. 10 μl of each sample were kept as Input. Reactions were incubated over night at 4° C. A mock sample without antibody was processed similarly. Prior to qPCR, DNA was purified using the Active Motif Chromatin IP DNA purification kit (58002), and eluted in 50 μl of DNase/RNase free water. 2 μl of purified chromatin was used for qPCR. In some experiments, ChIP reactions were supplemented with 10 ng of Drosophila melanogaster chromatin (spike in chromatin, Active motif, 08221011), and 1 μg of an antibody recognizing H2Av, a Drosophila specific histone variant, (spike in antibody, active motif, 61686), as an internal control for ChIP normalization.
HDLEC were seeded in 6-well plates at 100 000 cells/well. After 24 h, cells were transduced with 1 mL of Apelin lentivector diluted in 1 mL of OptiMEM Media in the presence of proteamine sulfate at a final concentration of 5 μg/mL. The Control cells (NT) non transduced with the Apelin Lentivector were processed at the same time and following the same protocol; in this case 2 mL of OptiMEM and 5 μg/mL of proteamine sulfate were added to the cells. The media was replaced after 24 h. […]

B1: APELIN: bioactive peptide apelin, endogenous ligand of APJ; applied to HDLEC as conditioned media from LV-Apelin transduced NIH3T3 or by transduction (protein, listed as Homo sapiens)
chain: MNLRLCVQALLLLWLSLTAVCGGSLMPLPDGNGLEDGNVRHLVQPRGSRNGPGPWQGGRRKFRRQRPRLSHKGPMPF
plasma apelin half-life [1]: less than five minutes
CCBE1 induction [2]: strongly confirmed
E2F8 binding on FLT4 (E2F8): no binding
E2F8 binding to CCBE1 promoter (E2F8): significantly increased
E2F8 binding to E2F1 transcription factor promoter (E2F8): induced
